Experimental findings from patent US20040067882A1 (published 2004) are described below.

This series concerns the molecule itself. Nature of the series: self-association, non-reducing western blot. In general terms: A western blot detects proteins with antibodies after separation by electrophoresis.

B1: CG57094-02 purified protein (angiopoietin-related protein, ARP, mature region; CHO-K1 stable cell expression, plasmid 1614) (ligand)
chain: GPVQSKSPRFASWDEMNVLAHGLLQLGQGLREHAERTRSQLSALERRLSACGSACQGTEGSTDLPLAPESRVDPEVLHSLQTQLKAQNSRIQQLFHKVAQQQRHLEKQHLRIQHLQSQFGLLDHKHLDHEVAKPARRKRLPEMAQPVDPAHNVSRLHRLPRDCQELFQVGERQSGLFEIQPQGSPPFLVNCKMTSDGGWTVIQRRHDGSVDFNRPWEAYKAGFGDPHGEFWLGLEKVHSITGDRNSRLAVQLRDWDGNAELLQFSVHLGGEDTAYSLQLTAPVAGQLGATTVPPSGLSVPFSTWDQDHDLRRDKNCAKSLSGGWWFGTCSHSNLNGQYFRSIPQQRQKLKKGIFWKTWRGRYYPLQATTMLIQPMAAEAAS
notes: also called NOV25s; CG57094 variant 02; not shown: C-terminal V5 and His tags from the pEE14.4 Sec vector
With B1, the binding result is “binds”.
